The values that follow come from article doi:10.1101/2021.08.17.456605.

The target of assay [1] is Heimdallarchaeota AB125 Vps22 (HeimAB125_14050) (Heimdallarchaeota AB125). Description: SEC-MALS.
Assay [2] has the same target. Put plainly: cross-linking.
For assay [3], the target named is Odinarchaeota LCB_4 Vps23(TSG101) (Odinarchaeota archaeon LCB_4). Put plainly: SEC-MALS.

With “Heimdallarchaeota AB125 Vps22 (HeimAB125_14050) (natural protein)”, the stoichiometry N in assay [1] and in assay [2] was 2 each time. “Odinarchaeota LCB_4 Vps23(TSG101) (natural protein)” came in with a stoichiometry N in assay [3] of 2. Substance “Odinarchaeota LCB_4 Vps28 (natural protein)” displayed a stoichiometry N (Vps28 per Vps23 dimer) in assay [3] of 1.
